Source: article PMC3082911 (Nucleic Acids Research, 2010)
Blank lines part the entries; values can stand above or below the molecule they belong to.

Experiments:
[1] = molecular target: myc-tagged PSF (full-length) (UniProt Q8VIJ6); test: co-IP
[2] = molecular target: T1, myc-tagged PSF (full-length) (UniProt Q8VIJ6 1-699); test: co-IP
T1 sequence: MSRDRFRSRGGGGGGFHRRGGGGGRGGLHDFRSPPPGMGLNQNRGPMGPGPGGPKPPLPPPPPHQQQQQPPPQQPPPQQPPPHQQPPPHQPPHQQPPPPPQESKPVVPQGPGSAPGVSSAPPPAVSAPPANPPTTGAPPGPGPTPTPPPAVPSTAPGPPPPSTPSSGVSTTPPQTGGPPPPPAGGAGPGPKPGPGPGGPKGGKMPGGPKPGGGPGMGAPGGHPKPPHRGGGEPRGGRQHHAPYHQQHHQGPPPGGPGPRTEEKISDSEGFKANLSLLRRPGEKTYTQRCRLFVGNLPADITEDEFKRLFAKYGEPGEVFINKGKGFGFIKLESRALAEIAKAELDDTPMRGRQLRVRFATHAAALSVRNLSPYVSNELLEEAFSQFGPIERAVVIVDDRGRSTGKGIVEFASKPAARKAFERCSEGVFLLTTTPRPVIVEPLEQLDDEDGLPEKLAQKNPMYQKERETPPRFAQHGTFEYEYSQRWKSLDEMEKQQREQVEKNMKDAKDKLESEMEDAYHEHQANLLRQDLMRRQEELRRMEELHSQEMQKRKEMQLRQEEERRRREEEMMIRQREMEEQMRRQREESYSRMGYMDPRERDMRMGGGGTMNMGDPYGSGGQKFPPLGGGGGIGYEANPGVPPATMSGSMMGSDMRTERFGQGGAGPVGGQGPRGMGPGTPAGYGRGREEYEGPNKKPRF

Molecule: myc-tagged Fox-3-S (from UniProt Q8BIF2-5 1-327) (natural protein)
fold more efficiently pulled down by PSF than Fox-1 [1]: 7 fold | fold more efficiently pulled down by PSF than Fox-2 [1]: 2.7 fold

fold more efficiently pulled down by PSF than Fox-1 [2]: 7 fold | fold more efficiently pulled down by PSF than Fox-2 [2]: 2.7 fold
B1: myc–Fox-3-L (natural protein)
chain: MAQPYPPAQYPPPPQNGIPAEYAPPPPHPTQDYSGQTPVPPEHGMTLYTPAQTHPEQPGTEASTQPIAGTQTVPQADEAAQTDNQQLHPSDPTEKQQPKRLHVSNIPFRFRDPDLRQMFGQFGKILDVEIIFNERGSKGFGFVTFETSSDADRAREKLNGTIVEGRKIEVNNATARVMTNKKPGNPYANGWKLNPVVGTVYGPEFYAVTSFPYPTTGTAVAYRGAHLRGRGRAVYNTFRAAPPPPPIPTYGAALEQTLVKMPVPWAGLAPCPLPPQQTPEPAYPTSPAFPPLSCPFASRVVYQDGFYGAEIYGGYAAYRYAQPAAATAAAYSDSYGRVYAAADPYHHTIGPTATYSIGTMASLCRGGYSRFTPY
